Assay [1] concerns the target T1, biotinylated cynomolgus monkey VWF cysteine knot (CK) domain construct (cynomolgus monkey, biotinylated in vitro (BirA) on the biotinylation tag; one N-glycan).
T1 construct: Expressed in HEK293 EBNA cells; disulfide-linked homodimer; also called cyno VWF CK; cyno VWF CK domain; not shown: in vitro biotinylation tag, HRV-3C site and 3 VWF residues before the CK domain
T1 chain: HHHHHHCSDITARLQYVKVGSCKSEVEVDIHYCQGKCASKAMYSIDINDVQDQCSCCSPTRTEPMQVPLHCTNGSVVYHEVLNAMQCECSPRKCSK
In words: SPR, scFv captured via anti-SV5, CK domain injected, pH 7.4, apparent Kd.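 Also: scFvs from crude yeast supernatants printed on an amine-coupled anti-SV5 lawn, Kd computed as koff over kon, likely overestimating affinity because the CK construct is dimeric.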 In general terms: Surface plasmon resonance follows binding to a sensor surface in real time, without labels.

For assay [2], the target named is T2, biotinylated human VWF cysteine knot (CK) domain construct (human, UniProt P04275 2724-2813, biotinylated in vitro (BirA) on the biotinylation tag; one N-glycan).
T2 construct: Expressed in HEK293 EBNA cells; disulfide-linked homodimer; also called human VWF CK; human VWF CK domain; not shown: in vitro biotinylation tag, HRV-3C site and 3 VWF residues before the CK domain
The assay is described as above.

In assay [3] the target is T2, biotinylated human VWF cysteine knot …. Briefly: SPR, scFv captured via anti-SV5, CK domain injected, pH 5.5, apparent Kd.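 Also: scFvs from crude yeast supernatants captured on chip-bound anti-SV5 antibody, Kd computed as koff divided by kon, dimeric CK construct likely makes affinity appear higher.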
Excerpt: Briefly, a sensor chip was activated and coupled with an anti-SV5 mouse monoclonal antibody using amine coupling. The soluble scFvs in crude yeast supernatants were printed on the anti-SV5 lawn. […] From the measured association (kₒₙ) and dissociation (koff) rate constants, an apparent equilibrium dissociation constant (Kd=koff/kₒₙ) was estimated. Due to the dimeric state of the CK construct and consequent possibility for simultaneous binding of captured scFv to both monomers in the CK dimer, the SPR setup was expected to overestimate the binding affinity.

B1: 8226_Lib8_scFv (scFv)
scFv: EVQLVESGGGLVQPGRSLRLSCAASGFNFHNYDMHWVRQAPGKGLEWVSAISGGAVSTDYADSVEGRFTISRDNAKNSLYLQMNSLRAEDTAVYYCARSSWYGGQIDFWGQGTLVTVSSSGGSTITSYNVYYTKLSSSGTDIQMTQSPSSLSASVGDRVTITCRASQDISGWLAWYQQKPGKAPKLLIYAASSLQDGVPSRFSGSGSGTDFTLTISSLQPEDVATYYCQQSYRIPSTFGGGTKVEIK
notes: VH-linker-VL; not shown: C-terminal 3xFLAG and SV5 tags
B1: the Kd in assay [1] stood at 0.55 nM; in assay [2], 3.17 nM; in assay [3], 1.38 nM.

B2: 1081_Lib8_scFv (scFv)
scFv: EVQLVESGGGLVQPGRSLRLSCAASGFNFHNYDMHWVRQAPGKGLEWVSAISGGAVSTDYADSVEGRFTISRDNAKNSLYLQMNSLRAEDTAVYYCARSSWYGGQIDFWGQGTLVTVSSSGGSTITSYNVYYTKLSSSGTDIQMTQSPSSLSASVGDRVTITCRASESVSSWLAWYQQKPGKAPKLLIYGASTLEGGVPSRFSGSGSGTDFTLTISSLQPEDVATYYCQQAYRTPVTFGGGTKVEIK
notes: as for B1
B2: the Kd was 0.167 nM in assay [1], 0.391 nM in assay [2] and 0.274 nM in assay [3].

B3: Lib8_P4_C10_scFv (scFv)
scFv: EVQLVESGGGLVQPGRSLRLSCAASGFNFHNYDMHWVRQAPGKGLEWVSAISGSSDTMDYADSVEGRFTISRDNAKNSLYLQMNSLRAEDTAVYYCVRASWYGTFFDYWGQGTLVTVSSSGGSTITSYNVYYTKLSSSGTDIQMTQSPSSLSASVGDRVTITCRASQDISGWLAWYQQKPGKAPKLLIYAASSLQDGVPSRFSGSGSGTDFTLTISSLQPEDVATYYCQQSYRIPSTFGGGTKVEIK
notes: as for B1
Regarding B3, the Kd in assay [1] came to 1.01 nM; in assay [2], 3.15 nM; in assay [3], 0.487 nM.

B4: 9301_Lib8_scFv (scFv)
scFv: EVQLVESGGGLVQPGRSLRLSCAASGFNFHNYDMHWVRQAPGKGLEWVSAISGSGYTADYADSVEGRFTISRDNAKNSLYLQMNSLRAEDTAVYYCAKSHSSGWSSAFDIWGQGTMVTVSSSGGSTITSYNVYYTKLSSSGTDIQMTQSPSSLSASVGDRVTITCRASQTIGYWLAWYQQKPGKAPKLLIYDASVPESGVPSRFSGSGSGTDFTLTISSLQPEDVATYYCQQTLSSPWTFGGGTKVEIK
notes: as for B1
As for B4, the Kd was 0.684 nM in assay [1], 0.167 nM in assay [2] and 0.039 nM in assay [3].

B5: Lib4_P2_H3_scFv (scFv)
scFv: QVQLQESGPGLVKPSQTLSLTCTVSGSTFGDYAWSWIRQPPGKGLEWIGYINHIGNADYNPSLKSRVTMSVDTSKNQFSLKVNSVTAADTAVYYCARDGVESPEVPNYYYYGMDVWGQGTTVTVSSSGGSTITSYNVYYTKLSSSGTEIVMTQSPATLSLSPGERATLSCRASHSIGSNLAWYQQKPGQAPRLLIYDATNRAPGIPARFSGSGSGTDFTLTISSLEPEDFAVYYCQQSYTNPTFGGGTKVEIK
notes: as for B1
Take B5: the Kd stood at 0.134 nM in assay [1], 0.307 nM in assay [2] and 0.075 nM in assay [3].

B6: 9621_Lib8_scFv (scFv)
scFv: EVQLVESGGGLVQPGRSLRLSCAASGFSFSMYAMHWVRQAPGKGLEWVSAISPSGDATDYADSVEGRFTISRDNAKNSLYLQMNSLRAEDTAVYYCARGMQDYGHYYYYYMDVWGKGTTVTVSSSGGSTITSYNVYYTKLSSSGTDIQMTQSPSSLSASVGDRVTITCRASQDISTSLAWYQQKPGKAPKLLIYGASSLETGVPSRFSGSGSGTDFTLTISSLQPEDVATYYCQQGYIAPRTFGGGTKVEIK
notes: as for B1
In the case of B6, the Kd in assay [1] stood at 0.137 nM; in assay [2], 0.217 nM; in assay [3], 2.28 nM.

B7: 1405_Lib8_scFv (scFv)
scFv: EVQLVESGGGLVQPGRSLRLSCAASGVDFSTYAMHWVRQAPGKGLEWVSAISSSGAYTDYADSVEGRFTISRDNAKNSLYLQMNSLRAEDTAVYYCATDRGPFSGYGTQGWFDPWGQGTLVTVSSSGGSTITSYNVYYTKLSSSGTDIQMTQSPSSLSASVGDRVTITCRASRDITSYLAWYQQKPGKAPKLLIYHASTLEAGVPSRFSGSGSGTDFTLTISSLQPEDVATYYCQQYGDFPPTFGGGTKVEIK
notes: as for B1
B7: the Kd in assay [1] is 0.039 nM; in assay [2], 0.305 nM; in assay [3], 0.389 nM.

The values are drawn from US20250154283A1 (published 2025).
